Drawing on US20030216345A1, this text covers decrease in degree of acetylation of α-tubulin (Western blot of HeLa cells overexpressing HDAC6) for one substance.

The target in this assay is acetylated α-tubulin. Briefly: cell-based or functional assay.

Substance “histone deacetylase 6 (HDAC6), full-length, His6 fused at N-terminal (from UniProt Q9UBN7 1-1215)” came in with a decrease in degree of acetylation of α-tubulin (Western blot of HeLa cells overexpressing HDAC6) of 50%.
